Test results: patent US20180155451A1 (published 2018)
Substitutions are numbered along the chain they refer to. Names and notes keep the numbering of the source.

T1: FcgRIIa R (human, UniProt P12318 34-217)
T1 construct: extracellular domain; also called FcγRIIa R; FcγRIIa type R; not shown: His tag attached to the C terminus
T1 sequence (looked up): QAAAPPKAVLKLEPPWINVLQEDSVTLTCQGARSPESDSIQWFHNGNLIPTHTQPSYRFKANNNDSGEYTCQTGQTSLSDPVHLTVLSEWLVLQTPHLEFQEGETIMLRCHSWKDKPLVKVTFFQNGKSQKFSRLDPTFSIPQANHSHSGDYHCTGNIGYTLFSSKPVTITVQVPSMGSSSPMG

T2: FcgRIIa H (human, UniProt P12318 34-217)
T2 construct: extracellular domain; also called FcγRIIa H; FcγRIIa type H; not shown: His tag attached to the C terminus
T2 sequence (looked up): T1 sequence (looked up) with R134H

T3: FcgRIIb (human, UniProt P31994 43-217)
T3 construct: extracellular domain; also called FcγRIIb; not shown: His tag attached to the C terminus
T3 sequence (looked up): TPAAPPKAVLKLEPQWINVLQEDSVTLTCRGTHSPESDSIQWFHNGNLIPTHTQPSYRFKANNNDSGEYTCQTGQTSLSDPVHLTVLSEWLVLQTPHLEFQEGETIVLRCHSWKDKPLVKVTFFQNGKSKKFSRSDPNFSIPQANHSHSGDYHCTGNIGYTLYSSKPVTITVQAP

T4: FcγRIIb (human, UniProt P31994 43-217)
T4 construct: extracellular domain; also called FcgRIIb; 2b; not shown: His tag at the C terminus
T4 sequence (looked up): T3 sequence (looked up)

B1: GpH7-A5/GpH7-B3 variant K326_02A/GpL16-k0 (antibody, human IgG1, kappa)
heavy 1: not shown
heavy 2: not shown
light: DIVMTQSPLSLPVTPGEPASISCQASESLVHSNRNTYLHWYLQKPGQSPQLLIYKVSNRFSGVPDRFSGSGSGTDFTLKISRVEAEDVGVYYCSQNTHVPPTFGQGTKVEIERTVAAPSVFIFPPSDEQLKSGTASVVCLLNNFYPREAKVQWKVDNALQSGNSQESVTEQDSKDSTYSLSSTLTLSKADYEKHKVYACEVTHQGLSSPVTKSFNRGEC
notes: heterodimerized IgG1; alteration in the GpH7-B3 H chain only; also called He Ab
B2: GpH7-A5/GpH7-B3 variant K326_04F/GpL16-k0 (antibody, human IgG1, kappa)
heavy 1: not shown
heavy 2: not shown
light: B1 light
notes: as for B1
B3: GpH7-A5/GpH7-B3 variant K326_03V/GpL16-k0 (antibody, human IgG1, kappa)
heavy 1: not shown
heavy 2: not shown
light: B1 light
notes: as for B1
B4: GpH7-A5/GpH7-B3 variant K326_06M/GpL16-k0 (antibody, human IgG1, kappa)
heavy 1: not shown
heavy 2: not shown
light: B1 light
notes: as for B1
B5: GpH7-A5/GpH7-B3 variant K326_20W/GpL16-k0 (antibody, human IgG1, kappa)
heavy 1: not shown
heavy 2: not shown
light: B1 light
notes: as for B1
B6: GpH7-A5/GpH7-B3 variant H268_18N/GpL16-k0 (antibody, human IgG1, kappa)
heavy 1: not shown
heavy 2: not shown
light: B1 light
notes: as for B1
B7: GpH7-A5/GpH7-B3 variant K326_08L/GpL16-k0 (antibody, human IgG1, kappa)
heavy 1: not shown
heavy 2: not shown
light: B1 light
notes: as for B1
B8: GpH7-A5/GpH7-B3 variant K326_07I/GpL16-k0 (antibody, human IgG1, kappa)
heavy 1: not shown
heavy 2: not shown
light: B1 light
notes: as for B1
B9: GpH7-A5/GpH7-B3 variant K326_15Y/GpL16-k0 (antibody, human IgG1, kappa)
heavy 1: not shown
heavy 2: not shown
light: B1 light
notes: as for B1
B10: GpH7-A5/GpH7-B3 variant K326_09D/GpL16-k0 (antibody, human IgG1, kappa)
heavy 1: not shown
heavy 2: not shown
light: B1 light
notes: as for B1
B11: GpH7-A5/GpH7-B3 variant H268_10E/GpL16-k0 (antibody, human IgG1, kappa)
heavy 1: not shown
heavy 2: not shown
light: B1 light
notes: as for B1
B12: GpH7-A5/GpH7-B3 variant K326_10E/GpL16-k0 (antibody, human IgG1, kappa)
heavy 1: not shown
heavy 2: not shown
light: B1 light
notes: as for B1
B13: GpH7-A5/GpH7-B3 variant K326_19Q/GpL16-k0 (antibody, human IgG1, kappa)
heavy 1: not shown
heavy 2: not shown
light: B1 light
notes: as for B1
B14: GpH7-A5/GpH7-B3 variant H268_13S/GpL16-k0 (antibody, human IgG1, kappa)
heavy 1: not shown
heavy 2: not shown
light: B1 light
notes: as for B1
B15: GpH7-A5/GpH7-B3 variant K326_14T/GpL16-k0 (antibody, human IgG1, kappa)
heavy 1: not shown
heavy 2: not shown
light: B1 light
notes: as for B1
B16: H240-Kn061 (Y235P)/H240-Hl071/L73-k0 (antibody, human IgG1, kappa)
heavy 1: QDQLVQSGAEVKKPGASVKVSCKASGFNIKDTYIQWVRQAPGQGLEWMGRIDPLRKQTKYREKFEGRVTITADTSTNTAYMELSSLRSEDTAVYYCVRSGREFDYWGQGTLVTVSSASTKGPSVFPLAPSSKSTSGGTAALGCLVKDYFPEPVTVSWNSGALTSGVHTFPAVLQSSGLYSLSSVVTVPSSSLGTQTYICNVNHKPSNTKVDKKVEPKSCDKTHTCPPCPAPEYPWGPSVFLFPPKPKDTLMISRTPEVTCVVVDVSDEDPEVKFNWYVDGVEVHNAKTKPREEQYNATYRVVSVLTVLHQDWLNGKEYKCKVSNKALPAPIEKTISKAKGQPREPQVCTLPPSRDELTKNQVSLWCLVKGFYPSDIAVEWESNGQPENNYKTTPPVLDSDGSFFLYSKLTVDKSRWQQGNVFSCSVMHEALHNHYTQKSLSLSP
heavy 2: QDQLVQSGAEVKKPGASVKVSCKASGFNIKDTYIQWVRQAPGQGLEWMGRIDPLRKQTKYREKFEGRVTITADTSTNTAYMELSSLRSEDTAVYYCVRSGREFDYWGQGTLVTVSSASTKGPSVFPLAPSSKSTSGGTAALGCLVKDYFPEPVTVSWNSGALTSGVHTFPAVLQSSGLYSLSSVVTVPSSSLGTQTYICNVNHKPSNTKVDKKVEPKSCDKTHTCPPCPAPELLGGPSVFLFPPKPKDTLMISRTPEVTCVVVDVSHEDPEVKFNWYVDGVEVHNAKTKPREEQYNSTYRVVSVLTVLHQDWLNGKEYKCKVSNDALPMPIEETISKAKGQPREPQVYTLPPSRCELTKNQVSLSCAVKGFYPSDIAVEWESNGQPENNYKTTPPVLDSDGSFFLVSKLTVDKSRWQQGNVFSCSVMHEALHNHYTQKSLSLSP
light: DIQMTQSPSSLSASVGDRVTITCRASQDIHKYIAWYQQKPGQAPRLLIQYTSTLQPGVPSRFSGSGSGTDYTFTISSLQPEDIATYYCLQYEQLRTFGGGTKVEIKRTVAAPSVFIFPPSDEQLKSGTASVVCLLNNFYPREAKVQWKVDNALQSGNSQESVTEQDSKDSTYSLSSTLTLSKADYEKHKVYACEVTHQGLSSPVTKSFNRGEC
B17: H240-Kn061 (Y235V)/H240-Hl071/L73-k0 (antibody, human IgG1, kappa)
heavy 1: B16 heavy 1 with P234V
heavy 2: B16 heavy 2
light: B16 light
B18: H240-Kn061 (Y235Q)/H240-Hl071/L73-k0 (antibody, human IgG1, kappa)
heavy 1: B16 heavy 1 with P234Q
heavy 2: B16 heavy 2
light: B16 light

molecular target: T5, FcγRIa (human, UniProt P12314 16-292); test: SPR (Biacore); He/Con_1a (FcγRIa) divided by He/Con_2b (FcγRIIb)
T5 construct: extracellular domain; also called FcgRI; 1a; not shown: His tag at the C terminus
T5 sequence (P12314 16-292): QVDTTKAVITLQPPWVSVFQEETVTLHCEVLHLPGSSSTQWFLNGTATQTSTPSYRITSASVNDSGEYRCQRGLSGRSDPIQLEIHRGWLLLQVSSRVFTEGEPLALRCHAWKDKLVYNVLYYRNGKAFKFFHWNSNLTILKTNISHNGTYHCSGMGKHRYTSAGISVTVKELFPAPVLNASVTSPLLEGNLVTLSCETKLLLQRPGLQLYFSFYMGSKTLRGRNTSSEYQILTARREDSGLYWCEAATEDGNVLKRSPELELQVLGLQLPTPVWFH

Row | Ia/IIb He_1a/2b | Binder
1 | 0.73 ratio | B1
2 | 0.66 ratio | B2
3 | 0.58 ratio | B3
4 | 0.62 ratio | B4
5 | 0.69 ratio | B5
6 | 0.69 ratio | B6
7 | 0.57 ratio | B7
8 | 0.51 ratio | B8
9 | 0.66 ratio | B9
10 | 0.54 ratio | B10
11 | 0.48 ratio | B11
12 | 0.52 ratio | B12
13 | 0.73 ratio | B13
14 | 0.68 ratio | B14
15 | 0.7 ratio | B15

molecular target: T1, FcgRIIa R; test: SPR (Biacore); KD of H240-Kn061/H240-Hl071/L73-k0 divided by KD of the variant

Row | Relative KD | Binder
16 | 0.6 | B16
17 | 0.5 | B17
18 | 0.8 | B18

molecular target: T2, FcgRIIa H; test: as above

Row | Relative KD | Binder
19 | 0.4 | B16
20 | 0.4 | B17
21 | 0.4 | B18

molecular target: T3, FcgRIIb; test: as above

Row | Relative KD | Binder
22 | 0.5 | B16
23 | 0.2 | B17
24 | 0.1 | B18

molecular target: T6, FcgRIIIa F (human, UniProt P08637 17-208); test: as above
T6 construct: extracellular domain; also called FcγRIIIa F; 3aF; not shown: His tag attached to the C terminus
T6 sequence (P08637 17-208): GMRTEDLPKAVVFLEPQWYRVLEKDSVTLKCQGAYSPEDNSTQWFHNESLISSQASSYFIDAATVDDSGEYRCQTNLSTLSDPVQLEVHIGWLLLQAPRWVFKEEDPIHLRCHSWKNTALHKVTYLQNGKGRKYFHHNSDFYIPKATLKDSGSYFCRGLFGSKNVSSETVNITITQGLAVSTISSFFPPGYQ

Row | Relative KD | Binder
25 | 1.1 | B16
26 | 1.2 | B17
27 | 1 | B18

molecular target: T7, FcgRIIIa V (human, UniProt P08637 17-208); test: as above
T7 construct: extracellular domain; also called FcγRIIIa V; not shown: His tag attached to the C terminus
T7 sequence (P08637 17-208 F176V limits assumed): as the sequence (P08637 17-208) above, with F160V counted along it

Row | Relative KD | Binder
28 | 1.5 | B16
29 | 1.3 | B17
30 | 1.3 | B18

molecular target: T3, FcgRIIb; test: as above; remark: another data set of the same source
Procedure: (§1) The antibodies were assessed for the binding to each FcgR. […] The resultant value was defined as relative KD, and used as an assessment indicator.
(§2) Analysis of interaction between obj ective antibody and the FcγR was carried out using Biacore T100 (GE Healthcare), Biacore T200, Biacore A100, and Biacore 4000. HBS-EP+ (GE Healthcare) was used as the running buffer, and the measurement temperature was set to 25° C. Chips produced by immobilizing the antigen peptide by the amine coupling method to a Series S sensor Chip CM5 (GE Healthcare), chips produced by allowing preliminarily biotinylated antigen peptides to interact with and immobilize onto a Series S Sensor Chip SA (certified) (GE Healthcare), chips produced by immobilizing Protein L (ACTIGEN, BioVision) to Series S Sencor Chip CM5 (GE Healthcare), or chips produced by immobilizing Protein A/G (Thermo Scientific) to Series S Sencor Chip CM5 (GE Healthcare) were used. Antibodies of interest were captured onto these chips, and allowed to interact to each FcγR diluted with running buffer.

Row | Relative KD | Binder
31 | 0.5 | B16
32 | 0.2 | B17
33 | 0.1 | B18

molecular target: T6, FcgRIIIa F; test: as above; remark: another data set of the same source
Procedure: as §1, §2

Row | Relative KD | Binder
34 | 1.1 | B16
35 | 1.2 | B17
36 | 1 | B18

molecular target: T7, FcgRIIIa V; test: as above; remark: another data set of the same source
Procedure: as §1, §2

Row | Relative KD | Binder
37 | 1.5 | B16
38 | 1.3 | B17
39 | 1.3 | B18

molecular target: T5, FcγRIa; test: SPR (Biacore), antibody captured, FcγR as analyte; binding as % of GpH7-A5/GpH7-B3/GpL16-k0

Row | He/Con_1a | Binder
40 | 102 % of control | B1
41 | 102 % of control | B2
42 | 102 % of control | B3
43 | 102 % of control | B4
44 | 103 % of control | B5
45 | 108 % of control | B6
46 | 100 % of control | B7
47 | 101 % of control | B8
48 | 106 % of control | B9
49 | 103 % of control | B10
50 | 111 % of control | B11
51 | 104 % of control | B12
52 | 102 % of control | B13
53 | 109 % of control | B14
54 | 104 % of control | B15

molecular target: T4, FcγRIIb; test: as above

Row | He/Con_2b | Binder
55 | 139 % of control | B1
56 | 155 % of control | B2
57 | 175 % of control | B3
58 | 165 % of control | B4
59 | 148 % of control | B5
60 | 156 % of control | B6
61 | 177 % of control | B7
62 | 199 % of control | B8
63 | 159 % of control | B9
64 | 193 % of control | B10
65 | 230 % of control | B11
66 | 200 % of control | B12
67 | 139 % of control | B13
68 | 160 % of control | B14
69 | 150 % of control | B15
